In patent publication US20150273042:

Tests used:
[1] = molecular target: GFP-… (EGFP from pSpeedET with … added at the C-terminus)
[2] = molecular target: T1, backbone protein PI-1 of GBS (GBS 80)
T1 chain: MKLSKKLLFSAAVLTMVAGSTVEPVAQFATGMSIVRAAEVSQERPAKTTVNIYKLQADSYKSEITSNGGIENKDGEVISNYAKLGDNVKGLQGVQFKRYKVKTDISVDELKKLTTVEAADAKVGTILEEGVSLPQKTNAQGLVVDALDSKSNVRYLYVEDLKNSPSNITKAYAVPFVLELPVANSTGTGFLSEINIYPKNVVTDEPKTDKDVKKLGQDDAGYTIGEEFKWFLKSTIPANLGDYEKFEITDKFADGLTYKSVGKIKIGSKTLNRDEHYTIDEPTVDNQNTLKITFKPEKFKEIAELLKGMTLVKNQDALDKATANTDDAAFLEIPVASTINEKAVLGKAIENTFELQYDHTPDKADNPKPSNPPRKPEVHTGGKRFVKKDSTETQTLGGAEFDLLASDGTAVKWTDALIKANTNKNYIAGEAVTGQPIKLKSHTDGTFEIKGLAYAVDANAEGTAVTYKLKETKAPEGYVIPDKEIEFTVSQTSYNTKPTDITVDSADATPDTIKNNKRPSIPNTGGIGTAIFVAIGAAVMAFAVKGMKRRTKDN

[3] = molecular target: pilus protein from Streptococcus pneumoniae (RrgB)
[4] = molecular target: T2, recombinant BP-2a (strain 515) lacking the C-terminal IPQTG sorting signal, BP 30-640
T2 chain: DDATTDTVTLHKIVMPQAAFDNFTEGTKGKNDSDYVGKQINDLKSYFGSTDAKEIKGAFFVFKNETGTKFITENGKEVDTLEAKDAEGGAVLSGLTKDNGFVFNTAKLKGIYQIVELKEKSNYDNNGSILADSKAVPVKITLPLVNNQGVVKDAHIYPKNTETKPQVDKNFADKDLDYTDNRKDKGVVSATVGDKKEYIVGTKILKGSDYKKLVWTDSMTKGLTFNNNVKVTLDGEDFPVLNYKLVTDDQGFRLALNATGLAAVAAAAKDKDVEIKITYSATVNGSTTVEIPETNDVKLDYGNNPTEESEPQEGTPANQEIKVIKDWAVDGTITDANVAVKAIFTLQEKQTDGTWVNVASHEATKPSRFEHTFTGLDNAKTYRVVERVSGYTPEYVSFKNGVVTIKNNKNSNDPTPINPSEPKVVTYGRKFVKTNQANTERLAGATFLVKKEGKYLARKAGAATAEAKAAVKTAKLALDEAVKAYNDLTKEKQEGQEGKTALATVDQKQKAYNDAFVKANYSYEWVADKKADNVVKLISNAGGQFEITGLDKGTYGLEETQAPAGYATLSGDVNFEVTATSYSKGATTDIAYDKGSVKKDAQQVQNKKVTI

[5] = molecular target: recombinant BP-2a (strain 515) with Lys189 replaced by alanine
[6] = molecular target: recombinant ancillary protein 1 of GBS pilus 2a (AP1-2a)
[7] = molecular target: recombinant ancillary protein 2 of GBS pilus 2a (AP2-2a)
[8] = molecular target: T3, recombinant backbone protein of GBS pilus 2a (BP-2a, GBS59), strain 515, BP 30-649
T3 chain: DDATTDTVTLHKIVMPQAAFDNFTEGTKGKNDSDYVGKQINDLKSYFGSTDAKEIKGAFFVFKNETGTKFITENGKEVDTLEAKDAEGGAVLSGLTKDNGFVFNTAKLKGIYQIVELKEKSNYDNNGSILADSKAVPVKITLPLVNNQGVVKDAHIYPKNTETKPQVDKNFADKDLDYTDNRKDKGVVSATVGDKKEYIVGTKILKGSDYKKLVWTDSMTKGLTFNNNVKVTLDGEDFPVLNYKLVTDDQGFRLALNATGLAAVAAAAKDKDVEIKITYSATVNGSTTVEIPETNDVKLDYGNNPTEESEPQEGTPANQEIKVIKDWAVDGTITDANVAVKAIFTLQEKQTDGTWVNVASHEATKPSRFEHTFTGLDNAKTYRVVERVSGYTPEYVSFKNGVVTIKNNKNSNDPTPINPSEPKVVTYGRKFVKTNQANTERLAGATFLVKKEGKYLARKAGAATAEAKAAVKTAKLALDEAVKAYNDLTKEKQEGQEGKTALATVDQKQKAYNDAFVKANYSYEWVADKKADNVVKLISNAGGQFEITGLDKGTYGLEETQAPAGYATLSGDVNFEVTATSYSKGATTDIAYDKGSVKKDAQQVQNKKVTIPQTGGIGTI

[9] = molecular target: synthetic fluorescent peptide carrying the LPXTG sorting motif of PI-1 backbone protein
[10] = molecular target: synthetic fluorescent peptide carrying the LPXTG sorting motif of PI-1 minor ancillary protein
[11] = molecular target: T4, backbone protein of GBS PI-2b (Spb1) expressed from a complementation vector in GBS strain 515Δ2a
T4 chain: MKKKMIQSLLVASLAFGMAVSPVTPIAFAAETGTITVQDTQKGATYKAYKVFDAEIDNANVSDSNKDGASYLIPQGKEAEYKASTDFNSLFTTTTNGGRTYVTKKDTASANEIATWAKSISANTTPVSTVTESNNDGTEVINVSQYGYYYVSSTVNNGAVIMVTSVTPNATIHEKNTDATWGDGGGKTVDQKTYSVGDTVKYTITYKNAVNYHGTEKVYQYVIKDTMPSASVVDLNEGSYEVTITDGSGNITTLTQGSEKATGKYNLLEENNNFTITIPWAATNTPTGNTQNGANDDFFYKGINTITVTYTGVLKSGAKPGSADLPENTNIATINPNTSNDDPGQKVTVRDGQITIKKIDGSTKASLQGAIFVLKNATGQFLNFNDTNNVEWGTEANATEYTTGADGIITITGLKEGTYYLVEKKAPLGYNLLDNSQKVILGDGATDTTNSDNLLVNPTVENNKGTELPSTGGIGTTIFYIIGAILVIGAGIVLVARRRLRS

B1: GBS sortase C1 of PI-2a lid mutant SrtC1Y86A (protein)
chain: ESNNQTQDFERAAKKLSQKEINRRMALAQAYNDSLNNVHLEDPAEKKRIQKGIAEYARMLEVSEKIGIISVPKIGQKLPIFAGSSQEVLSKGAGHLEGTSLPIGGNSTHTVITAHSGIPDKELFSNLKKLKKGDKFYIQNIKETIAYQVDQIKVVTPDNFSDLLVVPGHDYATLLTCTPIMVNTHRLLVRGHRIPYKGPIDEKLIKDGHLNTIYRYLFYISLVIIAWLLWLIKRQRQKNRLSSVRKGIES
in vitro polymerization reaction [1]: the SrtC1Y86A mutant was able to polymerise GFP-IPQTG
in vitro polymerization (SDS-PAGE) [2]: FIG. 7 shows that mutant sortase enzymes polymerize pilus proteins from a variety of gram positive bacteria
in vitro polymerization (SDS-PAGE) [3]: FIG. 7 shows that mutant sortase enzymes polymerize pilus proteins from a variety of gram positive bacteria
in vitro polymerization (HMW polymers on SDS-PAGE) [4]: HMW polymers could not be detected
in vitro polymerization (HMW polymers on SDS-PAGE) [5]: HMW polymers could be observed
in vitro polymerization (HMW structures on SDS-PAGE) [6]: some HMW structures were formed
in vitro polymerization (HMW structures on SDS-PAGE) [7]: some HMW structures were formed
in vitro polymerization (high-molecular-weight bands on SDS-PAGE) [8]: The typical pili pattern of bands with molecular weights above 260 kDa, visible by SDS-page, could be generated when monomeric r-BP was incubated with rSrtC1Y86A

B2: wild-type GBS sortase C1 of PI-2a, recombinant SrtC1 43-292 (protein)
chain: ESNNQTQDFERAAKKLSQKEINRRMALAQAYNDSLNNVHLEDPYEKKRIQKGIAEYARMLEVSEKIGIISVPKIGQKLPIFAGSSQEVLSKGAGHLEGTSLPIGGNSTHTVITAHSGIPDKELFSNLKKLKKGDKFYIQNIKETIAYQVDQIKVVTPDNFSDLLVVPGHDYATLLTCTPIMVNTHRLLVRGHRIPYKGPIDEKLIKDGHLNTIYRYLFYISLVIIAWLLWLIKRQRQKNRLSSVRKGIES
in vitro polymerization (high-molecular-weight bands on SDS-PAGE) [8]: showed no formation of high molecular weight bands that could represent pilus polymers

B3: recombinant PI-2b SrtC2 (full-length, strain COH1) in fusion with a His-MBP-tag (protein)
chain: MIRRYSANFLAILGIILVSSGIYWGWYNINQAHQADLTSQHIVKVLDKSITHQVKGSENGELPVKKLDKTDYLGTLDIPNLKLHLPVAANYSFEQLSKTPTRYYGSYLTNNMVICAHNFPYHFDALKNVDMGTDVYFTTTTGQIYHYKISNREIIEPTAIEKVYKTATSDNDWDLSLFTCTKAGVARVLVRCQLIDVKN
FRET assay, cleavage of fluorescent peptide [9]: The PI-2b SrtC1 and SrtC2 enzymes are able to cleave the fluorescent peptides
FRET assay, cleavage of fluorescent peptide [10]: The PI-2b SrtC1 and SrtC2 enzymes are able to cleave the fluorescent peptides

B4: recombinant PI-2b SrtC1 (full-length, strain COH1) in fusion with a His-MBP-tag (protein)
chain: MAYPSLANYWNSFHQSRAIMDYQDRVTHMDENDYKKIINRAKEYNKQFKTSGMKWHMTSQERLDYNSQLAIDKTGNMGYISIPKINIKLPLYHGTSEKVLQTSIGHLEGSSLPIGGDSTHSILSGHRGLPSSRLFSDLDKLKVGDHWTVSILNETYTYQVDQIRTVKPDDLRDLQIVKGKDYQTLVTCTPYGVNTHRLLVRGHRVPNDNGNALVVAEAIQIEPIYIAPFIAIFLTLILLLISLEVTRRARQRKKILKQAMRKEENNDL
FRET assay, cleavage of fluorescent peptide [9]: The PI-2b SrtC1 and SrtC2 enzymes are able to cleave the fluorescent peptides
FRET assay, cleavage of fluorescent peptide [10]: The PI-2b SrtC1 and SrtC2 enzymes are able to cleave the fluorescent peptides

B5: PI-2b SrtC1 expressed from a complementation vector in GBS strain 515Δ2a (protein)
chain: MAYPSLANYWNSFHQSRAIMDYQDRVTHMDENDYKKIINRAKEYNKQFKTSGMKWHMTSQERLDYNSQLAIDKTGNMGYISIPKINIKLPLYHGTSEKVLQTSIGHLEGSSLPIGGDSTHSILSGHRGLPSSRLFSDLDKLKVGDHWTVSILNETYTYQVDQIRTVKPDDLRDLQIVKGKDYQTLVTCTPYGVNTHRLLVRGHRVPNDNGNALVVAEAIQIEPIYIAPFIAIFLTLILLLISLEVTRRARQRKKILKQAMRKEENNDL
pili polymerisation in complemented GBS 515Δ2a (western blot) [11]: transfection with BP and SrtC1 resulted in the formation of high molecular weight polymers
